Tested on: Escherichia coli TOP10
Assay: shrunken log2 fold change of peptide-encoding DNA abundance (4.5 h post-induction vs induction); higher = less antimicrobial activity (less host growth inhibition)
Conditions: time post-induction: 4.5 h; library: site-saturation at positions 5, 18, 19, 20
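Note: peptides expressed intracellularly from a pBAD plasmid library in pooled LB shake-flask culture, induced with 0.3% L-arabinose, DNA abundance read by NGS, three biological replicates, DESeq2 with apeglm shrinkage.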

RRIRARPPRLPRPRPRPKWPPRP
shrunken log2 fold change: 0.751

RRIRSRPPRLPRPRPRPCYPPRP
shrunken log2 fold change: -0.264

RRIRVRPPRLPRPRPRPMWTPRP
shrunken log2 fold change: -0.0192

RRIRSRPPRLPRPRPRPLTIPRP
shrunken log2 fold change: -0.201

RRIRDRPPRLPRPRPRPLFGPRP
shrunken log2 fold change: 0.341

RRIRKRPPRLPRPRPRPDMDPRP
shrunken log2 fold change: 0.0224

RRIRNRPPRLPRPRPRPGGVPRP
shrunken log2 fold change: 0.239

RRIRARPPRLPRPRPRPCDWPRP
shrunken log2 fold change: 0.353

RRIRNRPPRLPRPRPRPHIRPRP
shrunken log2 fold change: -0.0139

RRIRRRPPRLPRPRPRPWNTPRP
shrunken log2 fold change: -0.214

RRIRSRPPRLPRPRPRPGLWPRP
shrunken log2 fold change: 0.266

RRIRGRPPRLPRPRPRPFQMPRP
shrunken log2 fold change: 0.0308

RRIRLRPPRLPRPRPRPCQWPRP
shrunken log2 fold change: -0.0969

RRIRKRPPRLPRPRPRPRLWPRP
shrunken log2 fold change: 1.01

RRIRIRPPRLPRPRPRPCSKPRP
shrunken log2 fold change: -0.267

RRIRDRPPRLPRPRPRPHGGPRP
shrunken log2 fold change: 0.0317

RRIRSRPPRLPRPRPRPHLLPRP
shrunken log2 fold change: -0.097

RRIRERPPRLPRPRPRPCRTPRP
shrunken log2 fold change: -0.203

RRIRYRPPRLPRPRPRPNYPPRP
shrunken log2 fold change: -0.79

RRIRGRPPRLPRPRPRPPGIPRP
shrunken log2 fold change: 0.745

RRIRNRPPRLPRPRPRPQRNPRP
shrunken log2 fold change: -0.109

RRIRHRPPRLPRPRPRPYSDPRP
shrunken log2 fold change: -1.17

RRIRKRPPRLPRPRPRPLCCPRP
shrunken log2 fold change: 0.104

RRIRIRPPRLPRPRPRPTEGPRP
shrunken log2 fold change: 0.00534

RRIRMRPPRLPRPRPRPCVYPRP
shrunken log2 fold change: -0.195

RRIRYRPPRLPRPRPRPFETPRP
shrunken log2 fold change: 0.111

RRIRERPPRLPRPRPRPRIFPRP
shrunken log2 fold change: -0.0907

RRIRKRPPRLPRPRPRPVAPPRP
shrunken log2 fold change: 0.528

RRIRYRPPRLPRPRPRPMKQPRP
shrunken log2 fold change: -0.0304

RRIRPRPPRLPRPRPRPFEFPRP
shrunken log2 fold change: 0.0458

RRIRSRPPRLPRPRPRPTHMPRP
shrunken log2 fold change: 0.188

RRIRHRPPRLPRPRPRPALFPRP
shrunken log2 fold change: -0.0554

RRIRMRPPRLPRPRPRPYHRPRP
shrunken log2 fold change: -0.141

RRIRWRPPRLPRPRPRPCMQPRP
shrunken log2 fold change: 0.0574

RRIRMRPPRLPRPRPRPHRMPRP
shrunken log2 fold change: -0.0254

RRIRRRPPRLPRPRPRPWFAPRP
shrunken log2 fold change: 0.204

RRIRYRPPRLPRPRPRPQCQPRP
shrunken log2 fold change: -0.00208

RRIRGRPPRLPRPRPRPAANPRP
shrunken log2 fold change: 0.911

RRIRIRPPRLPRPRPRPQIMPRP
shrunken log2 fold change: -1.16

RRIRERPPRLPRPRPRPKTWPRP
shrunken log2 fold change: -0.104

RRIRNRPPRLPRPRPRPQLLPRP
shrunken log2 fold change: -0.0811

RRIRHRPPRLPRPRPRPHLTPRP
shrunken log2 fold change: -0.0621

RRIRDRPPRLPRPRPRPSTYPRP
shrunken log2 fold change: -0.273

RRIRKRPPRLPRPRPRPGVMPRP
shrunken log2 fold change: 0.895

RRIRDRPPRLPRPRPRPRGSPRP
shrunken log2 fold change: 0.255

RRIRERPPRLPRPRPRPDHIPRP
shrunken log2 fold change: -0.537

RRIRQRPPRLPRPRPRPRAQPRP
shrunken log2 fold change: -0.0701

RRIRHRPPRLPRPRPRPVWEPRP
shrunken log2 fold change: 0.107

RRIRMRPPRLPRPRPRPRQNPRP
shrunken log2 fold change: 0.62

RRIRLRPPRLPRPRPRPEERPRP
shrunken log2 fold change: 0.231

RRIRLRPPRLPRPRPRPVHPPRP
shrunken log2 fold change: 0.039

RRIRGRPPRLPRPRPRPCVWPRP
shrunken log2 fold change: 0.921

RRIRYRPPRLPRPRPRPGTCPRP
shrunken log2 fold change: -0.729

RRIRSRPPRLPRPRPRPKSRPRP
shrunken log2 fold change: -0.0201

RRIRERPPRLPRPRPRPATPPRP
shrunken log2 fold change: 1.31

RRIRRRPPRLPRPRPRPLISPRP
shrunken log2 fold change: -0.111

RRIRMRPPRLPRPRPRPMSDPRP
shrunken log2 fold change: -0.095

RRIRARPPRLPRPRPRPAPWPRP
shrunken log2 fold change: 0.632

RRIRSRPPRLPRPRPRPAQHPRP
shrunken log2 fold change: 0.0967

RRIRERPPRLPRPRPRPYSMPRP
shrunken log2 fold change: -1.48

RRIRFRPPRLPRPRPRPSIVPRP
shrunken log2 fold change: -0.663

RRIRYRPPRLPRPRPRPYWNPRP
shrunken log2 fold change: -1.63

RRIRCRPPRLPRPRPRPHKTPRP
shrunken log2 fold change: -0.0871

RRIRQRPPRLPRPRPRPDHKPRP
shrunken log2 fold change: -0.0609

RRIRNRPPRLPRPRPRPSCWPRP
shrunken log2 fold change: 0.0544

RRIRFRPPRLPRPRPRPWLFPRP
shrunken log2 fold change: -0.0194

RRIRCRPPRLPRPRPRPLWQPRP
shrunken log2 fold change: -0.147

RRIRRRPPRLPRPRPRPANCPRP
shrunken log2 fold change: 0.00326

RRIRFRPPRLPRPRPRPAFMPRP
shrunken log2 fold change: -0.164

RRIRMRPPRLPRPRPRPRQMPRP
shrunken log2 fold change: 0.862

RRIRKRPPRLPRPRPRPGNPPRP
shrunken log2 fold change: 0.85

RRIRDRPPRLPRPRPRPPTQPRP
shrunken log2 fold change: 0.285

RRIRERPPRLPRPRPRPKQYPRP
shrunken log2 fold change: -0.292

RRIRWRPPRLPRPRPRPYGGPRP
shrunken log2 fold change: -0.683

RRIRIRPPRLPRPRPRPLMFPRP
shrunken log2 fold change: -0.617

RRIRERPPRLPRPRPRPASPPRP
shrunken log2 fold change: -0.165

RRIRLRPPRLPRPRPRPKEIPRP
shrunken log2 fold change: -0.00121

RRIRWRPPRLPRPRPRPKTGPRP
shrunken log2 fold change: 0.491

RRIRNRPPRLPRPRPRPPYTPRP
shrunken log2 fold change: -0.876

RRIRDRPPRLPRPRPRPPTWPRP
shrunken log2 fold change: 0.291

RRIRFRPPRLPRPRPRPTLCPRP
shrunken log2 fold change: 0.107

RRIRMRPPRLPRPRPRPEELPRP
shrunken log2 fold change: 0.123

RRIRDRPPRLPRPRPRPFGIPRP
shrunken log2 fold change: 0.0183

RRIRPRPPRLPRPRPRPPKLPRP
shrunken log2 fold change: 0.172

RRIRKRPPRLPRPRPRPSHDPRP
shrunken log2 fold change: -0.203

RRIRARPPRLPRPRPRPETCPRP
shrunken log2 fold change: 0.331

RRIRERPPRLPRPRPRPQRTPRP
shrunken log2 fold change: -0.233

RRIRQRPPRLPRPRPRPFGWPRP
shrunken log2 fold change: -0.0154

RRIRSRPPRLPRPRPRPCQKPRP
shrunken log2 fold change: 0.185

RRIRRRPPRLPRPRPRPAPPPRP
shrunken log2 fold change: 0.778

RRIRARPPRLPRPRPRPMYIPRP
shrunken log2 fold change: -0.345

RRIRTRPPRLPRPRPRPSGWPRP
shrunken log2 fold change: -0.00504

RRIRHRPPRLPRPRPRPPTMPRP
shrunken log2 fold change: -0.354

RRIRIRPPRLPRPRPRPRVCPRP
shrunken log2 fold change: 0.00058

RRIRWRPPRLPRPRPRPYAHPRP
shrunken log2 fold change: -0.056

RRIRFRPPRLPRPRPRPTMVPRP
shrunken log2 fold change: -0.129

RRIRVRPPRLPRPRPRPDQAPRP
shrunken log2 fold change: -0.038

RRIRGRPPRLPRPRPRPMWNPRP
shrunken log2 fold change: 0.557

RRIRPRPPRLPRPRPRPCHNPRP
shrunken log2 fold change: 0.156

RRIRFRPPRLPRPRPRPGSQPRP
shrunken log2 fold change: -0.117

RRIRVRPPRLPRPRPRPGCSPRP
shrunken log2 fold change: 0.186

RRIRDRPPRLPRPRPRPRRQPRP
shrunken log2 fold change: 0.161

RRIRSRPPRLPRPRPRPHQHPRP
shrunken log2 fold change: -0.321

RRIRMRPPRLPRPRPRPFRLPRP
shrunken log2 fold change: -0.1

RRIRGRPPRLPRPRPRPDHGPRP
shrunken log2 fold change: -0.0602

RRIRVRPPRLPRPRPRPMGFPRP
shrunken log2 fold change: 0.034

RRIRWRPPRLPRPRPRPDIRPRP
shrunken log2 fold change: -0.0808

RRIRSRPPRLPRPRPRPHNMPRP
shrunken log2 fold change: -0.798

RRIRFRPPRLPRPRPRPRSVPRP
shrunken log2 fold change: -0.00149

RRIRPRPPRLPRPRPRPKHFPRP
shrunken log2 fold change: 0.328

RRIRRRPPRLPRPRPRPHRCPRP
shrunken log2 fold change: 0.0585

RRIRERPPRLPRPRPRPFLHPRP
shrunken log2 fold change: -0.332

RRIRGRPPRLPRPRPRPGAIPRP
shrunken log2 fold change: 1.44

RRIRLRPPRLPRPRPRPGWYPRP
shrunken log2 fold change: 0.354

RRIRMRPPRLPRPRPRPERAPRP
shrunken log2 fold change: 2.76

RRIRQRPPRLPRPRPRPEDYPRP
shrunken log2 fold change: -0.0734

RRIRARPPRLPRPRPRPQDKPRP
shrunken log2 fold change: -0.132

RRIRLRPPRLPRPRPRPHKAPRP
shrunken log2 fold change: -0.0451

RRIRKRPPRLPRPRPRPQMAPRP
shrunken log2 fold change: 0.481

RRIRCRPPRLPRPRPRPCFYPRP
shrunken log2 fold change: -0.675

RRIRARPPRLPRPRPRPMQYPRP
shrunken log2 fold change: 0.00958

RRIRDRPPRLPRPRPRPLDSPRP
shrunken log2 fold change: 0.148

RRIRHRPPRLPRPRPRPVPVPRP
shrunken log2 fold change: 0.0601

RRIRFRPPRLPRPRPRPGWVPRP
shrunken log2 fold change: 0.176

RRIRFRPPRLPRPRPRPNTSPRP
shrunken log2 fold change: -0.307
